PMC10243135
Like-named read-outs stand apart in the source and are kept apart here.

Key:
[1] = molecular target: T1, WhiA;WhiB;sigmaA (sigma HrdB);RbpA;RNA polymerase core (alpha2 beta beta' omega) (Streptomyces venezuelae;Streptomyces …, UniProt F2RGQ4;F2R611;F2R7X6;F2RBH1;F2RJV9;F2RIS5;F2RIS6;F2RCK7 …, ||||); assay: cryo-EM
[2] = molecular target: T1, WhiA;WhiB;sigmaA (sigma HrdB);RbpA;RNA …; assay: cryo-EM; remark: listed apart in the source

B1: sepX promoter (cryo-EM, RPo) (dsDNA)
DNA 1: GTGATATCAGCCAGATCGTGCGACACACCGGGCCAATTGGCCGATGCCGTCCCGCGAACCCCTCTACCGTGTGAGGCGTGAGCAGCAGCGGCCTCATCGC
DNA 2: GCGATGAGGCCGCTGCTGCTCACGCCTCACACGGTAGAGGGGTTCGCGGGACGGCATCGGCCAATTGGCCCGGTGTGTCGCACGATCTGGCTGATATCAC
Question: Does B1 bind [1]?
Answer: binds

B2: sepX-2 promoter (cryo-EM, RPo-2) (dsDNA)
DNA 1: GTGATATCAGCCAGATCGTGCGACACACCGGGCCAATTGGCTTGACACC
DNA 2: GGTGTCAAGCCAATTGGCCCGGTGTGTCGCACGATCTGGCTGATATCAC
Question: Does B2 bind [2]?
Answer: binds
